Measured values: IntAct's records for PubMed 25814554

B1: Tetraspanin-2 (Homo sapiens), O60636 (parent)
chain: MGRFRGGLRCIKYLLLGFNLLFWLAGSAVIAFGLWFRFGGAIKELSSEDKSPEYFYVGLYVLVGAGALMMAVGFFGCCGAMRESQCVLGSFFTCLLVIFAAEVTTGVFAFIGKGVAIRHVQTMYEEAYNDYLKDRGKGNGTLITFHSTFQCCGKESSEQVQPTCPKELLGHKNCIDEIETIISVKLQLIGIVGIGIAGLTIFGMIFSMVLCCAIRNSRDVI
B2: Pleckstrin homology domain-containing family S member 1 (Homo sapiens), Q5SXH7-1 (parent)
chain: MAGGKQFTFSYENEVCKQDYFIKSPPSQLFSSVTSWKKRFFILSKAGEKSFSLSYYKDHHHRGSIEIDQNSSVEVGISSQEKMQSVQKMFKCHPDEVMSIRTTNREYFLIGHDREKIKDWVSFMSSFRQDIKATQQNTEEELSLGNKRTLFYSSPLLGPSSTSEAVGSSSPRNGLQDKHLMEQSSPGFRQTHLQDLSEATQDVKEENHYLTPRSVLLELDNIIASSDSGESIETDGPDQVSGRIECHYEPMESYFFKETSHESVDSSKEEPQTLPETQDGDLHLQEQGSGIDWCLSPADVEAQTTNDQKGSASLTVVQLSILINNIPDESQVEKLNVFLSPPDVINYLALTEATGRICVSQWEGPPRLGCIFCHGDHLLAVNDLKPQSLEEVSLFLTRSIQKEKLKLTIGRIPNSETFHAASCMCPSKCQSAAPSQLDKPRLNRAPKRSPAIKKSQQKGARE

Variants of: B1
Conditions: with grb2_human GRB2, P62993

| effect of a mutation on the interaction | Variant |
| --- | --- |
| disrupting interaction | Y124F |

Variants of: B1
Conditions: with p55g_human PIK3R3, Q92569

| effect of a mutation on the interaction | Variant |
| --- | --- |
| disrupting interaction | Y124F |

Variants of: B2
Conditions: with p55g_human PIK3R3, Q92569

| effect of a mutation on the interaction | Variant |
| --- | --- |
| disrupting interaction | D68F |
